Test results reported in patent US20250163146A1, “SINGLE-DOMAIN ANTIBODIES (NANOBODIES) TARGETING THE NOTCH LIGAND DLL4 AND METHODS OF THEIR USE” (H. LEE MOFFITT CANCER CENTER AND RESEARCH INSTITUTE, INC., priority 2022, published 2025).

B1: clone B4: anti-DLL4 nanobody isolated from the yeast library, SEQ ID NO: 16 (protein)
VHH: QVQLQESGGGLVQAGGSLRLSCAASGNISVWIPMGWYRQAPGKEREFVASIGEGSTTYYADSVKGRFTISRDNAKNTVYLQMNSLKPEDTAVYYCAVPYYGHSDYDYWGQGTQVTVSSGSYPYDVPDYAQTSSPSTEAS
B2: Nb.d4C4v2: affinity-matured variant of the C4 nanobody, SEQ ID NO: 39 (SEQ ID NO: 41 with flanking sequence) (protein)
VHH: QVQLQESGGGLVQAGGSLRLSCAASGSISGDVEMGWYRQAPGKEREFVAGINDGGNIYYADNVEGRFTISRDNAKNTVYLQMNSLKPEDTAVYYCAVSTTYPSYNESQYADWIAYWGQGAQVTVSS
B3: clone A9: anti-DLL4 nanobody isolated from the yeast library, SEQ ID NO: 8 (protein)
VHH: QVQLQESGGGLVQAGGSLRLSCAASGTISQDSGMGWYRQAPGKEREFVAGITAGSITYYADSVKGRFTISRDNAKNTVYLQMNSLKPEDTAVYYCAASYVSVQAHTYWGQGTQVTVSSGSYPYDVPDYAQTSSPSTEAS
B4: clone A8: anti-DLL4 nanobody isolated from the yeast library, SEQ ID NO: 4 (protein)
VHH: QVQLQESGGGLVQAGGSLRLSCAASGTIFEERVMGWYRQAPGKEREFVAGIASGAITYYADSVKGRFTISRDNAKNTVYLQMNSLKPEDTAVYYCAAQGYSFKTKPDYSAYVLVYWGQGTQVTVSSGSYPYDVPDYAQTSSPSTEAS
B5: clone A7: anti-DLL4 nanobody isolated from the yeast library, SEQ ID NO: 24 (protein)
VHH: QVQLQESGGGLVQAGGSLRLSCAASGNIFYTYSMGWYRQAPGKEREFVAAISAGTITYYADSVKGRFTISRDNAKNTVYLQMNSLKPEDTAVYYCAVFAPRDVIHYYWGQGTQVTVSSGSYPYDVPDYAQTSSPSTEAS
B6: clone B1: anti-DLL4 nanobody isolated from the yeast library, SEQ ID NO: 12 (protein)
VHH: QVQLQESGGGLVQAGGSLRLSCAASGTIFYSSDMGWYRQAPGKEREFVAGINRGSTTYYADSVKGRFTISRDNAKNTVYLQMNSLKPEDTAVYYCAVVSDVLTRLFYWGQGTQVTVSSGSYPYDVPDYAQTSSPSTEAS
B7: clone C2: anti-DLL4 nanobody isolated from the yeast library, SEQ ID NO: 28 (protein)
VHH: QVQLQESGGGLVQAGGSLRLSCAASGSISVVYGMGWYRQAPGKEREFVAGISYGGSTYYADSVKGRFTISRDNAKNTVYLQMNSLKPEDTAVYYCAVDASYWDTLVYWGQGTQVTVSSGSYPYDVPDYAQTSSPSTEAS
B8: clone C4: anti-DLL4 nanobody isolated from the yeast library, SEQ ID NO: 32; nanobody d4C4 SEQ ID NO: 36 (protein)
VHH: QVQLQESGGGLVQAGGSLRLSCAASGSISGDVEMGWYRQAPGKEREFVAGINDGGNTYYADSVKGRFTISRDNAKNTVYLQMNSLKPEDTAVYYCAVSTTYPSYNESQYADWLAYWGQGTQVTVSSGSYPYDVPDYAQTSSPSTEAS
B9: clone C5: anti-DLL4 nanobody isolated from the yeast library, SEQ ID NO: 20 (protein)
VHH: QVQLQESGGGLVQAGGSLRLSCAASGNISTGTAMGWYRQAPGKEREFVAGIAYGATTYYADSVKGRFTISRDNAKNTVYLQMNSLKPEDTAVYYCAVEVSQSTPGGRYSVAYLIYWGQGTQVTVSSGSYPYDVPDYAQTSSPSTEAS

How the values were obtained:
mouse DLL4 = molecular target: T1, mouse DLL4 (Mus musculus, UniProt Q9JI71); test: Yeast-displayed nanobody clones stained with biotinylated mDLL4 and SA-647, flow cytometry; assay type: binding; details: yeast display, biotinylated mDLL4 (N-EGF3), SA-647, FIG. 1
T1 construct: The mDLL4 protein was a truncation that contained the C2, DSL, and EGF1-3 domains (DLL4 (N-EGF3)); biotin (protein is biotinylated)
T1 sequence (Q9JI71 27-323 limits assumed): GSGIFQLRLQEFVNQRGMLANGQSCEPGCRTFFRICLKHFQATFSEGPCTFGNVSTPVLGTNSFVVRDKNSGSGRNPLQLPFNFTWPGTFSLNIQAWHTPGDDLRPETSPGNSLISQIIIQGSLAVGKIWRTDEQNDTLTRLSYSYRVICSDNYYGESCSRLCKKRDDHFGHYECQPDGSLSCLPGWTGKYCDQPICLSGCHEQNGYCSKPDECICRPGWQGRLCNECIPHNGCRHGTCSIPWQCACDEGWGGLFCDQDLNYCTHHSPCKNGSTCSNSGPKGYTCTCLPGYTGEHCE
Protocol: 162. To isolate binding molecules that interrupted the interaction of DLL4 and Notch1, we performed several rounds of selection using decreasing concentrations of biotinylated murine DLL4 protein. The mDLL4 protein was a truncation that contained the C2, DSL, and EGF1-3 domains (DLL4 (N-EGF3)). To perform a selection, the library was stained with biotinylated mDLL4, washed, incubated with streptavidin-647, washed, and then binders isolated selected using either (a) magnetic beads coated with an anti-647 antibody or (b) FACS. The mDLL4-binding yeast were then plated so that individual colonies could be picked and cultured to isolate individual clones. The clones were then each stained with mDLL4 and SA-647 and analyzed by flow cytometry to confirm that they bound to mDLL4. (FIG. 1).

hNotch1 = test: Inhibition in plate-bound and co-culture formats with CHO-hNotch1 reporter cell line; assay type: cell-based, human; details: preliminary
Text: (§1) 168. We the investigated the C4 nanobody following affinity maturation and found a second nanobody Nb.d4C4v2. To identify the similarity between the parent C4 and the variant C4v2 clone the sequences of each nanobody was compared (FIG. 7). We also investigated the affinity of the C4 nanobody. […] Moreover, inhibition in plate-bound and co-culture formats in the presence of CHO-hNotch1 reporter cell line and with or without cells expressing DLL4 indicate a low-nanomolar IC50 similar to DAPT, indicating affinity-matured Nb.d4C4v2 is a clinical candidate (FIGS. 9 and 10).

DLL4 [1] = molecular target: T2, DLL4 (Homo sapiens, UniProt Q9NR61); test: Cross-reactivity: yeast expressing each nanobody stained with biotinylated human DLL4 (N-EGF3), flow cytometry; assay type: binding; parameters: stained with biotinylated human DLL4 (N-EGF3); biotin (protein is biotinylated); details: yeast display, SA-647, FIG. 2
Protocol: 163. The eight anti-DLL4 nanobody clones were then tested for cross-reactivity between human and mouse DLL4. Yeast cells expressing each nanobody were stained with biotinylated human DLL4 (N-EGF3), washed, stained with SA-647, and then analyzed by flow cytometry.
Target sequence in this assay (Q9NR61 27-322 limits assumed): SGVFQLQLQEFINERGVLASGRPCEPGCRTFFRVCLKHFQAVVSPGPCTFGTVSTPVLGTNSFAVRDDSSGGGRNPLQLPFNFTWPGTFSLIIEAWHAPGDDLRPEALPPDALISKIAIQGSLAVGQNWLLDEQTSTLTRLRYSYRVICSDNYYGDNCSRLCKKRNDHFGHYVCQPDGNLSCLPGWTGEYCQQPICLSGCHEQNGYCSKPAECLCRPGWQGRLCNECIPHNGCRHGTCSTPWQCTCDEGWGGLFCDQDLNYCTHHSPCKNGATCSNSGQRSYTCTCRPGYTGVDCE

hDLL4: hNotch1 complexes = hDLL4: hNotch1 complexes (Homo sapiens, UniProt Q9NR61); test: Yeast expressing nanobody stained with unlabeled hDLL4 + biotinylated hNotch1 (6-13), flow cytometry (inhibition of hNotch1 binding to hDLL4); details: FIG. 3
hDLL4: hNotch1 complexes, sequence (Q9NR61 27-322 limits assumed, one chain of several): as the sequence (Q9NR61 27-322 limits assumed) above
Protocol: (§2) 164. Next, we tested four cross-reactive nanobodies (A7, C4, C5, and B1) for their ability to inhibit binding of hNotch1 to hDLL4 (FIG. 3). Yeast expressing each nanobody were stained with either biotinylated hDLL4 (N-3) or unlabled hDLL4+biotinylated hNotch1 EGF domains 6-13 (hNotch1 (6-13)). The yeast were then washed, incubated with SA-647, and analyzed by flow cytometry.

[2] = system: DLL4-mediated Notch activation (hNotch1); test: Plate-bound ligand stimulation assay, Notch1 H2B-citrine reporter cells on recombinant human DLL4; assay type: cell-based; details: nanobody-Fc fusions, plates coated with human DLL4 (C2, DSL, EGF1-5), FIG. 6
Text: 167. To determine if the C4 and C5 nanobodies inhibit DLL4-mediated Notch activation. Notch1 reporter H2B-citrine reporter cells were transferred to 96-well plates coated with recombinant human DLL4 protein containing the C2, DSL, and EGF1-5 domains in the presence or absence of nanobody-Fc fusions.

DLL4 [3] = molecular target: T2, DLL4; test: SPR monomer affinity; assay type: binding; details: preliminary, FIG. 8
Text: as §1
Target sequence in this assay (Q9NR61 27-685, species assumed): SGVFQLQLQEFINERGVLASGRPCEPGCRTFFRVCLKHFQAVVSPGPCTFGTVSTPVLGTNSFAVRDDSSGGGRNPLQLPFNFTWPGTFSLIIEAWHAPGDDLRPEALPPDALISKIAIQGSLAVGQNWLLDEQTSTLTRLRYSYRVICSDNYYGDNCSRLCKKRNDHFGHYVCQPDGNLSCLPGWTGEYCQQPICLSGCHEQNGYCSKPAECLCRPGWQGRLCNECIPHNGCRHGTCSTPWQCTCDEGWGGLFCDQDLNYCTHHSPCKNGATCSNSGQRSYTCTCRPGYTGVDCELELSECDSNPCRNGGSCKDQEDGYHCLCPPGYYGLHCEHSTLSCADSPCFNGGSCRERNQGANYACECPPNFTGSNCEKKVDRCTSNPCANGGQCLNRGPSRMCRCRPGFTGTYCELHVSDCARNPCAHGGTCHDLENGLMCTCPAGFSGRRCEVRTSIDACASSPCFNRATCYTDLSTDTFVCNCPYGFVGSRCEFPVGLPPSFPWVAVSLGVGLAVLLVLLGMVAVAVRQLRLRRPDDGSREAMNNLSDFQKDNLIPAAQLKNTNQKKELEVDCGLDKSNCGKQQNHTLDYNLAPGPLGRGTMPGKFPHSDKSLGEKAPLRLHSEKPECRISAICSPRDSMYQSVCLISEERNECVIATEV

DLL4 [4] = molecular target: T2, DLL4; test: Yeast expressing nanobody stained with biotinylated hDLL4 (N-3) alone, flow cytometry; assay type: binding; parameters: stained with biotinylated human DLL4 (N-EGF3); details: yeast display, FIG. 3
Protocol: as §2
Target sequence in this assay (Q9NR61 27-322 limits assumed): as the sequence (Q9NR61 27-322 limits assumed) above

Row | Molecule | binding to mouse DLL4 (mouse DLL4) | cross-reactivity with human DLL4 (DLL4 [1]) | also measured
1 | B1 | bound mouse DLL4 |  | 
2 | B2 |  |  | IC50 (hNotch1; CHO-hNotch1 reporter cell line and cells expressing DLL4, similar to DAPT, FIG. 10): low-nanomolar; IC50 (hNotch1; CHO-hNotch1 reporter cell line, without cells expressing DLL4, similar to DAPT, FIG. 9): low-nanomolar
3 | B3 | bound mouse DLL4 |  | 
4 | B4 | bound mouse DLL4 |  | 
5 | B5 | bound mouse DLL4 | cross reacted with human DLL4 | 
6 | B6 | bound mouse DLL4 | cross reacted with human DLL4 | 
7 | B7 | bound mouse DLL4 |  | 
8 | B8 |  | cross reacted with human DLL4 | binding to hDLL4: hNotch1 complexes (hDLL4: hNotch1 complexes): not to hDLL4: hNotch1 complexes; reduction in reporter activity (hNotch1 activation) [2]: dose-dependent reduction in reporter activity; monomer affinity (DLL4 [3]): low nanomolar to picomolar range; binding to hDLL4 alone (DLL4 [4]): bound robustly
9 | B9 | bound mouse DLL4 | cross reacted with human DLL4 | binding to hDLL4: hNotch1 complexes (hDLL4: hNotch1 complexes): not to hDLL4: hNotch1 complexes; reduction in reporter activity (hNotch1 activation) [2]: dose-dependent reduction in reporter activity; binding to hDLL4 alone (DLL4 [4]): bound robustly
